Measurements: PMC9489475 (Nature structural & molecular biology, 2022)

Molecular target: the molecule itself
Experiment: cryo-EM structure

B1: band 3 (native, full-length, from human erythrocyte membrane) (natural protein, human (endogenous in red blood cells), UniProt P02730 1-911, looked up)
chain: MEELQDDYEDMMEENLEQEEYEDPDIPESQMEEPAAHDTEATATDYHTTSHPGTHKVYVELQELVMDEKNQELRWMEAARWVQLEENLGENGAWGRPHLSHLTFWSLLELRRVFTKGTVLLDLQETSLAGVANQLLDRFIFEDQIRPQDREELLRALLLKHSHAGELEALGGVKPAVLTRSGDPSQPLLPQHSSLETQLFCEQGDGGTEGHSPSGILEKIPPDSEATLVLVGRADFLEQPVLGFVRLQEAAELEAVELPVPIRFLFVLLGPEAPHIDYTQLGRAAATLMSERVFRIDAYMAQSRGELLHSLEGFLDCSLVLPPTDAPSEQALLSLVPVQRELLRRRYQSSPAKPDSSFYKGLDLNGGPDDPLQQTGQLFGGLVRDIRRRYPYYLSDITDAFSPQVLAAVIFIYFAALSPAITFGGLLGEKTRNQMGVSELLISTAVQGILFALLGAQPLLVVGFSGPLLVFEEAFFSFCETNGLEYIVGRVWIGFWLILLVVLVVAFEGSFLVRFISRYTQEIFSFLISLIFIYETFSKLIKIFQDHPLQKTYNYNVLMVPKPQGPLPNTALLSLVLMAGTFFFAMMLRKFKNSSYFPGKLRRVIGDFGVPISILIMVLVDFFIQDTYTQKLSVPDGFKVSNSSARGWVIHPLGLRSEFPIWMMFASALPALLVFILIFLESQITTLIVSKPERKMVKGSGFHLDLLLVVGMGGVAALFGMPWLSATTVRSVTHANALTVMGKASTPGAAAQIQEVKEQRISGLLVAVLVGLSILMEPILSRIPLAVLFGIFLYMGVTSLSGIQLFDRILLLFKPPKYHPDVPYVKRVKTWRMHLFTGIQIICLAVLWVVKSTPASLALPFVLILTVPLRRVLLPLIFRNVELQCLDADDAKATFDEEEGRDEYDEVAMPV
modifications: N-glycan site N642 (N-acetylglucosamine modelled close to N642)
stoichiometry N: 2
